Data on three molecules can be found in CN113583114A (YANG SHENG TANG CO LTD; UNIV XIAMEN, dated 2021).

The experiment addresses SARS-CoV-2Sde18 (SARS-CoV-2 S蛋白, C末端截短18个氨基酸) on VSV pseudovirus SARS-CoV-2VSVpp (SARS-CoV-2, UniProt P0DTC2 14-1255). In words: cell-based or functional assay.

B1: 人源单克隆抗体3C11 (antibody, V domains shown)
VH: EVQLVESGGGLVQPGGSLRLSCAASGFTVSRNYMSWVRQAPGKGLEWVSVIYSGGSTYYADSVKGRFTISRDNSKNTLYLQMNSLRAEDTAVYYCARGLVASYRYGMDVWGQGTTVTVSS
VL: DIQMTQSPVSLSASIGDRVTITCQASQDITNYLNWYQQKPGKAPKLLIYDASNLETGVPSRFSGSGSGTDFTFTISSLQPEDIATYYCHQYDNLPVTFGGGTKVEIK
B1: the 假病毒感染阻断率 is 80 % (at 0.22 μg/mL) and the “半抑制浓度(IC50), 假病毒中和 (GFP阳性细胞数减少)” value is 62.9 ng/mL.

B2: 人源单克隆抗体5C6 (antibody, V domains shown)
VH: EVQLVESGGGVVQPGRSLRLSCAASGFTFRTYAMHWVRQAPGKGLEWVAVMWNDGSNKYYADSVKGRFTISRDNSKNTLYLEMNSLRAEDTAVYYCAREGVAAAGSSSDAFDIWGQGTMVTVSS
VL: DIQMTQSPSSLSASVGDRVTITCRASQSISNFLNWYQQKPGKAPKLLIYAASSLQSGVPSRFSGSGSGTDFTLTISSLQPEDFATYYCQQSYSTLYSFGQGTKLEIK
As to B2, the 假病毒感染阻断率 is 80 % (at 0.22 μg/mL) and the “半抑制浓度(IC50), 假病毒中和 (GFP阳性细胞数减少)” value was determined as 4.06 ng/mL.

B3: 人源单克隆抗体6G9 (antibody, V domains shown)
VH: QVQLVQSGAEVKKLGASVKVSCKASGYSFTDYYIHWVRQAPGQGLEWMGWINPISGGTNYAQKFQGRVTMTRDTSITTVYMELSRLRSDDTAVYYCARDLPPYNWNGPLRSQRFDCWGQGTLVTVSS
VL: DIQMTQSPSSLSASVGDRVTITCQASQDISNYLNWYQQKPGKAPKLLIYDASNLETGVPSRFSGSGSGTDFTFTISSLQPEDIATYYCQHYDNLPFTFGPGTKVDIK
In the case of B3, the 假病毒感染阻断率 is 80 % (at 0.22 μg/mL) and the “半抑制浓度(IC50), 假病毒中和 (GFP阳性细胞数减少)” value came out at 0.56 ng/mL.
